# Results as given in patent US20100260805A1 (CIRCASSIA, published 2010).
# Where two headings read alike, the source gives them in different places.
# T1: DQA1*0102/DQB1*0602 (human), P01920
# T1 chain 1: not shown
# T1 chain 2: not shown
# T2: HLA-DRB1*0701 (human)
# T2 chain 1: not shown
# T2 chain 2: not shown
# T3: HLA-DRB1*1101 (human)
# T3 chain 1: not shown
# T3 chain 2: not shown
# T4: HLA-DRB1*1501 (human)
# T4 chain 1: not shown
# T4 chain 2: not shown
# T5: DQA1*0102/DQB1*0602 (human, UniProt P01920 33-230, limits assumed)
# T5 construct: human MHC class II allotype
# T5 MHC II alpha: not shown
# T5 MHC II beta: not shown
# B1: HDM20 (peptide)
# peptide: CIIHRGKPFQLEA
# modifications: not checked
# B2: HDM01 (peptide)
# peptide: IDLRQMRTVTPIR
# B3: HDM02 (peptide)
# peptide: RTVTPIRMQGGCG
# B4: HDM03C (peptide)
# peptide: RNQSLDLAEQELVDCASQH
# B5: HDM06 (peptide)
# peptide: RYVAREQSCRRPN
# B6: HDM09A (peptide)
# peptide: REALAQTHSAIAVI
# B7: HDM21 (peptide)
# peptide: KPFQLEAVFEANQNT
# B8: HDM21A (peptide)
# peptide: KPFQLEAVFEANQNTK
# B9: HDM21B (peptide)
# peptide: RGKPFQLEAVFEANQNT
# B10: HDM22A (peptide)
# peptide: EAVFEANQNTKTAK
# B11: HDM23A (peptide)
# peptide: DGLEVDVPGIDPNACH
# notes: purity 66.7%
# B12: HDM26A (peptide)
# peptide: DGVLACAIATHAKIR
# B13: HDM30 (peptide)
# peptide: DKFERHIGIIDLK
# B14: HDM33 (peptide)
# peptide: LDMRNIQVRGLKQ
# B15: HDM34 (peptide)
# peptide: RNIQVRGLKQMKRVG
# Assays:
# [1] = biological target: T1, DQA1*0102/DQB1*0602 (human), P01920
# [2] = biological target: T2, HLA-DRB1*0701 (human)
# [3] = biological target: T3, HLA-DRB1*1101 (human)
# [4] = biological target: T4, HLA-DRB1*1501 (human)
# [5] = biological target: T6, HLA-DRB1*0701 (human); experiment: competitive MHC class II binding assay; competitor: control peptide Influenza haemagglutinin 307-319;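 also: each peptide was tested for its capacity to displace a known reference binder from human MHC class II allotypes, and its IC50 is expressed relative to that of the reference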
# T6 construct: human MHC class II allotype
# [6] = biological target: T7, HLA-DRB1*0301 (human); experiment: competitive MHC class II binding assay; competitor: control peptide Myco. tuberculosis/leprae hsp 65 2-16
# T7 construct: human MHC class II allotype
# [7] = biological target: T5, DQA1*0102/DQB1*0602; experiment: competitive MHC class II binding assay; competitor: control peptide Human Insulin B 1-15
# [8] = biological target: T8, HLA-DRB1*1501 (human); experiment: competitive MHC class II binding assay; competitor: control peptide Human myelin basic protein 85-99
# T8 construct: human MHC class II allotype
# [9] = biological target: T9, HLA-DRB1*1101 (human); experiment: competitive MHC class II binding assay; competitor: control peptide Influenza haemagglutinin 307-319;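 also: each peptide was tested for its capacity to displace a known reference binder from human MHC class II allotypes, and its IC50 is expressed relative to that of the reference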
# T9 construct: human MHC class II allotype
# [10] = biological target: T10, HLA-DRB1*0101 (human); experiment: as above
# T10 construct: human MHC class II allotype
# [11] = biological target: T11, HLA-DRB1*0401 (human); experiment: as above
# T11 construct: human MHC class II allotype
# [12] = biological target: T12, HLA-DRB1*1301 (human); experiment: competitive MHC class II binding assay; competitor: control peptide HLA-DQB1*0603 21-36
# T12 construct: human MHC class II allotype
binder,measurement,setting,value
B1,ratio of IC50 to that of the control peptide,[1],2.37
same,ratio of IC50 to that of the control peptide,[2],1.1
same,ratio of IC50 to that of the control peptide,[3],28
same,ratio of IC50 to that of the control peptide,[4],242
B2,ratio of IC50 to that of the control peptide,[5],16 ratio
same,ratio of IC50 to that of the control peptide,[6],19.2 ratio
B3,ratio of IC50 to that of the control peptide,[7],0.03 ratio
same,ratio of IC50 to that of the control peptide,[8],80 ratio
B4,ratio of IC50 to that of the control peptide,[7],0.16 ratio
B5,ratio of IC50 to that of the control peptide,[7],0.86 ratio
same,ratio of IC50 to that of the control peptide,[9],30.4 ratio
B6,ratio of IC50 to that of the control peptide,[8],200 ratio
same,ratio of IC50 to that of the control peptide,[5],0.49 ratio
same,ratio of IC50 to that of the control peptide,[9],21.1 ratio
B7,ratio of IC50 to that of the control peptide,[10],92 ratio
same,ratio of IC50 to that of the control peptide,[11],11.2 ratio
same,ratio of IC50 to that of the control peptide,[9],11.7 ratio
B8,ratio of IC50 to that of the control peptide,[10],200 ratio
same,ratio of IC50 to that of the control peptide,[11],52.2 ratio
same,ratio of IC50 to that of the control peptide,[9],10.3 ratio
B9,ratio of IC50 to that of the control peptide,[10],13.5 ratio
same,ratio of IC50 to that of the control peptide,[11],0.78 ratio
same,ratio of IC50 to that of the control peptide,[9],4.1 ratio
B10,ratio of IC50 to that of the control peptide,[11],329 ratio
same,ratio of IC50 to that of the control peptide,[9],80 ratio
B11,ratio of IC50 to that of the control peptide,[7],0.76 ratio
same,ratio of IC50 to that of the control peptide,[6],347 ratio
B12,ratio of IC50 to that of the control peptide,[7],0.61 ratio
same,ratio of IC50 to that of the control peptide,[10],42.3 ratio
same,ratio of IC50 to that of the control peptide,[5],16.3 ratio
B13,ratio of IC50 to that of the control peptide,[5],6.2 ratio
B14,ratio of IC50 to that of the control peptide,[12],263 ratio
same,ratio of IC50 to that of the control peptide,[5],46.5 ratio
same,ratio of IC50 to that of the control peptide,[9],41.5 ratio
B15,ratio of IC50 to that of the control peptide,[12],3.7 ratio
same,ratio of IC50 to that of the control peptide,[8],769 ratio
same,ratio of IC50 to that of the control peptide,[9],3.38 ratio
